Source: the DeepSol protein solubility set

Assay: soluble on expression in E. coli; label from the status in PepcDB or PDB records
For “MGSDKIHHHHHHMVNPKLPVIWYGGDYYPEQWDEETFERDIRMFKEAGINVVTIGVFSWSLIQPDENTYDFSFFEKVMDRLYKEGIYVCLATPTSAPPHWMTQKYPEILFTDVNGVKREKGGRQNFCPNSEKYRYFARNIAEKLAEHFKDHPALVLWHVNNEYLNYCYCDICRGKFQNWLKEKYGTLDELNRRWNTRFWSQTFTAWEEIPVPTTRSVLVWRKDRYQSVLPELYLDYRRFMTQSMLECFLEEYRAIKKHTPDIPVTTNLIAATFKEWNYFEWAKHMDVAAWDNYPGYKEDFSVISLRHSLIRCLKEGKPFVLMEQSPSQACWRWYNPQKRPGEMRLWSYHALAHGAETLMFFQLRQSKGGVEKFHGAVITHVDSPNTRVFQEVKRVGEEIKSLSDILDARVVSQTALLFDWESWWAMEDTLTPSVDFRYLNEVQKYFKALVKTGLGVDVVGKDQNFERYRVLVAPVLYMVGKELAQKLKDYVSNGGILILTTMSGIVDEDDQVVLGGYPGYLRDLMGGYVEEIDALPPEEKNEILMFGKRYECSLVFDYIKTTTAEVLGRFGRDYYMNEPAVLRNNYGKGWVYYVGSSTSFDLVWDLVKFMEREHNLRAEIAPPDDVEVIKKIKGEKIFYFLFNHSHELQIVDLPEGMFRDLIKGNLYEKKVKLQPLDVLILLKE”, the “soluble on expression in E. coli” value was “not soluble”. In the case of “MSLGPTSKAISRNVRSVKRPRRAPRPVVSTQAMNKLSNVTLSAEQEKLRERVLSFMRSNLSQYKSDWKHPAMFVIQGDAGTGKSVILNSLFNEIQKLSQFSPSSEDILHGTHNYLVVNHPEMLKLYIRISDSFKYISKSSLERPTSLINNLQKRKVMADVVIVDEAHLLATSKDAFKRFYGENHLKDLMSLCKVLVLVYDDKQALRMGSYWDEGSNNGATLKDFYNEIPPKSRDWYTLKQQFRVAAPQNVLNWIDQISVAGKIPPIESVLSKGNADCADDKIKNFDFKIWDDCGAMYEAIKEKDRQYGQCRMLSTYDFPYRLDGKDYYVECGDNFKVRWDRYTPREVTPWSERCDTIDEVGSVYTIQGFDLNYAGVILGRSIGYDAANDCIKLRPELYDDRAGFTKKKNIHNAEDVKQKIIMNSINVLLTRGVRGLYVYAYDPELRERLLRPSKEGHHHHHH”, the “soluble on expression in E. coli” value is reported as “soluble”. For “MSLSIQSGEILETVKMVADQNFDVRTITIGIDLHDCISSDINVLNQNIYNKITTVGKDLVTTAKYLSAKYGVPIVNQRISVTPIAQIAAATHADSYVSVAQTLDKAAKAIGVSFIGGFSALVQKGMSPSDEVLIRSIPEAMKTTDIVCSSINIGSTRAGINMDAVKLAGETVKRTAEITPEGFGCAKIVVFCNAVEDNPFMAGAFHGSGEADAVINVGVSGPGVVKAALENSDATTLTEVAEVVKKTAFKITRVGELIGREASKMLNIPFGILDLSLAPTPAVGDSVARILEEMGLSVCGTHGTTAALALLNDAVKKGGMMASSAVGGLSGAFIPVSEDEGMIAAAEAGVLTLDKLEAMTAVCSVGLDMIAVPGDTPAHTISGIIADEAAIGMINSKTTAVRIIPVTGKTVGDSVEFGGLLGYAPVMPVKEGSCEVFVNRGGRIPAPVQSMKNEGHHHHHH”, the “soluble on expression in E. coli” value was “soluble”. In the case of “MGSDKIHHHHHHMFDDKMSGNAMNAEIELKLFFLPIYQESLINKLDSLDNAVPQGKRRLANGYFDTPDLQLRQWDMGLRVRGYDAHREQTIKTAGQVVGGIHSRPEYNVTIQADSPDLSLFPASIWPADADLAATQAQLTCIFHTDFYRRSWHVQIDNSVVEVALDIGEITANGQQEALCELEFELLSGDTEALLKLAMQVASVVPVRLGKASKAQRGYRLAGKAKPLDLTALEFLPLAEPRDSSTQDLTANCQILLETALERWQLLESMIAEESKPEACVALWWRMRACIRLLRMTLSQFELLNVTLSSRFMSIEKQLDFIEQAQALTALLGSQRGLFAKLGQHAQVKARLMAQLSEIHLTERLLSLWQQTEYGQLQLAIVEILLKVSAGEVDISNQPSLRQHADRAQQASWMAIVEVMPLNTVMTSANYLQVAAVLDESILVGHAYGSLYEAKSRDAFRAPWQDLVLGIKTLACYRAVQDASRELDIDLNEWLEDKQQSLLFAMESTRRNAMQQQAYW”, the “soluble on expression in E. coli” value is reported as “not soluble”. In the case of “MGSDKIHHHHHHMFAGAWKNYRNILCVRPDNMGDVLMSQPAMRALKESVPGRKITLLTSTAGACIAPFIPEVDETIPFDVPWVKTTETNGAQRLLALAGELLALQLDAAVIFTVYSQNPLPAGMLCYLAGIKAVLGYCRENPYQLINQWVPDREPLDYVVHEVERQLRLVEMAGAKTSDTRLLLKIPEETRKEATDRVWEILNVAGIRAGMGWLVLHAGVSEEKRLYPARDYITACQSLIRQGYKILLTGSGSERDYVDQIARQLSDAAINVAGELSIAELIVLVEAAPVLISNNTGPVHIATAVGTPVVVLYAMTNPQHTPWQVPSKVLYFEVLPELRTKNQLLQSFPGSSTPRASPEAIVAAVGELVSPRRKHGSFIPSPLRNPVPTCNSLPDTALAACFTPHNEYGMCPPIRYGEDV”, the “soluble on expression in E. coli” value is reported as “not soluble”. In the case of “SLVNLKVNLLLVDYRGYGKSEGEASEEGLYLDSEAVLDYVMTRPDLDKTKIFLFGRSLGGAVAIHLASENSHRISAIMVENTFLSIPHMASTLFSFFPMRYLPLWCYKNKFLSYRKISQCRMPSLFISGLSDQLIPPVMMKQLYELSPSRTKRLAIFPDGTHNDTWQCQGYFTALEQFIKEVVKSHSPEEMAKTSSNVTII”, the “soluble on expression in E. coli” value is reported as “soluble”. With “MGSDKIHHHHHHMACGRMYHFNVFAYGVEEILREVSKKGTESDIRLYNRKEEDGVMTFIEPIKYPDKVSSLTDSIYPTDLFIINGENLDKYFAETVIALDLFGKTRGIIVASEDKQSTIRKLLKDTNIQPEFFSGRPMEIIDRIKAFKIERNEQDTLVVIDHYFKVKSVGTVILGFVLSGKIRKHQDLYLSGINREVQVRSIQVNDVDFDEAEAGTRVGVALKNVEVEELSRGMFLAEKPFEYTNQVKDSVVFHKSLKGRDTMSDPYISDLMNFVKCNPEGDAYTTRFKLPLLKDSFVMADQNGFPRVVGYSKVKR” the “soluble on expression in E. coli” value was “not soluble”. With “MDRVIEDKELGRLVVRDNVRAKRLVFRTKADAIYISIPLGVTMREVKEAIEKLRPRLLDSRQKLVRPLIDLNYRIETEYFKLSLVSGKRERFLAHSELGEMRIICPPTADFTDSNLQDWLRKVIEEALRRNAKIILPPRLYMLSEKHRLPYESVQINSSRGRWGSCSSRKKINLSYFLVLLPKHLIDYVLLHELCHTCEMNHGDRFWNLLNGLTDGKALELREELKRYKTEILEHHHHHH” the “soluble on expression in E. coli” value was “not soluble”. In the case of “HLQGLSAAVLDLTGLAQKGGTVVSHIRLAPSGTANGPVRLDWQQADAAILCDPVAAVAPDSLGALRRDHTRTTVNTYVAPVSDFTRNPDAPLRADALLAKIRHAAGEHVAALDAHAAAQALFGDSILSNMFMLGHAWQRGDVPLALAALARAIELNGVAVAANRAAFDAGRLAAHE”, the “soluble on expression in E. coli” value is reported as “not soluble”. In the case of “RSFLPPFNEGSFTINVSTLPGISLEESDRMGRMAEEILLSVPEVQTVGRKTGRAELDEHALGVNVSEIEVPFVLKDRSKDEVLADIREKLKVLPGVNIEIGQPISHRIDAMLSGTRANIAIKLFGPDLNRLFAIGNQIKTSVHDVKGVADLNVEQQVERPQLKIVPKREMLAKYGLTPASFAEIVNVMLAGEVVSQVYEGNRSFDLSLKVNDESRESADRIRDLIIDAGGRKIPFAYVADIVSASGPNTINRENVSRKIVVSANVAGRDLRSVVNDIQERIDADITLPEGYHIEYGGQFESEQAASRT”, the “soluble on expression in E. coli” value is reported as “not soluble”. For “SLEKHSWYHGPVSRNAAEYLLSSGINGSFLVRESESSPGQRSISLRYEGRVYHYRINTASDGKLYVSSESRFNTLAELVHHHSTVADGLITTLHYPAPKRNKPTVYGVSPNY”, the “soluble on expression in E. coli” value was “soluble”. With “MGSDKIHHHHHHMKVFITGGTGFVGSAVVQELVANGFEVVGLARSETSAQKLISWGAQPVRGSLTSLSTLATAAAQADAIIHLGFNNDFRHFFQAGAMDRRAIETMGRAISGTNKPLVVTYGTTGIRKHVETEHEVADTGLLKWLTPRKSEIVARQLMAQNINAFVVRLSPAVHGAGDMGFTRTVIERAKKSHRAEYFGLGTHAWSAVHRLDAAHLFYLVTMYGLEHPTTNERVFNAVAEESITIAAIARTISRKLNVPLKAKYNPLSFGDTAMLYLINCPTSSQLTRQILGWVPVQPDLLTDISSSRY” the “soluble on expression in E. coli” value was “not soluble”. For “MAYWLFKTEPDTFSIDTLRTQKVSCWEGVRNYQARNMMRDQVKVGDFVLIYHSSCKNVGVAGIAKVVREAYPDHFQFDPESDYYDPKSDPDNPRWIMVDIEFVRKTARVIPLSVMKAMPELENMPLVKRGNRLSIMPVTEDEWEAILGKEKLPSQRLEHHHHHH”, the “soluble on expression in E. coli” value was “soluble”.
